Experimental data reported in patent publication US20160319032A1.
Values belong to the substance of their own block, whether it stands above or below them.

Legend:
[1] = target: α4β1 integrin on J6.77 cells (UniProt P13612); test: cell-based or functional assay
[2] = target: α5β1 integrin on K562 cells (UniProt P08648); test: cell-based or functional assay
[3] = target: human αV on parental A375M cells (αVβ3 and αVβ5 integrins) (human) (UniProt P06756); test: cell-based or functional assay
[4] = target: human αVβ6 integrin on cells (human) (UniProt P06756); test: FMAT, 1 ug/mL, HEK 293 cells stably overexpressing αVβ6
Sequence of human αVβ6 integrin on cells (human) (P06756 31-1048, chain 1 of 2): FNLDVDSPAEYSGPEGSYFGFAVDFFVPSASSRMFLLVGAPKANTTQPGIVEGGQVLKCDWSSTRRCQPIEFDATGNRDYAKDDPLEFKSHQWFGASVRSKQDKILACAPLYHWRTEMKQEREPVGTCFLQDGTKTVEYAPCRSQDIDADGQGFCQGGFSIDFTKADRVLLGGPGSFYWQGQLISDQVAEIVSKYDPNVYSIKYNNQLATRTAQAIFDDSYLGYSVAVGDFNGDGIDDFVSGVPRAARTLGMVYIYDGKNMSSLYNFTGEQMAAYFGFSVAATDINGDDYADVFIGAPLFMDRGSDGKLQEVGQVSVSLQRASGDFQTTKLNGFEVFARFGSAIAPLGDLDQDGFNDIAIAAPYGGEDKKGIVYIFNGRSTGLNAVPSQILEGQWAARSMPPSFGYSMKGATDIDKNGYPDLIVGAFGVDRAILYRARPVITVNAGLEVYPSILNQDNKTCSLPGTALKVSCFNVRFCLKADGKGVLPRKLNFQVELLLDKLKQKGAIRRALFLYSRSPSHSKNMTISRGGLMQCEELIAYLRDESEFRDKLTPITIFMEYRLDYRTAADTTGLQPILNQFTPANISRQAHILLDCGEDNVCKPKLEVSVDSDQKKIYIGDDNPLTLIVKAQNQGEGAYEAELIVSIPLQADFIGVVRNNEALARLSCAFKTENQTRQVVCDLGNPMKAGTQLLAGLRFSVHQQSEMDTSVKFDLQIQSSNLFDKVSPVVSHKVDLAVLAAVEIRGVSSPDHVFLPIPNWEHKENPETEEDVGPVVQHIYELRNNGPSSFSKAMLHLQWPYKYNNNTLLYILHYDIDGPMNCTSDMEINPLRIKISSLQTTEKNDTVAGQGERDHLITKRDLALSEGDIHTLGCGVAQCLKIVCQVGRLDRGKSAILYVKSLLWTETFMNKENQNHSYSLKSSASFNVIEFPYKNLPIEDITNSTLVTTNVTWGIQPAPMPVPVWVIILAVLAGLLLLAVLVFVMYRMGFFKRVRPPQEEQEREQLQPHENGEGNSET
Sequence of human αVβ6 integrin on cells (human) (P18564 22-788, chain 2 of 2, further chain): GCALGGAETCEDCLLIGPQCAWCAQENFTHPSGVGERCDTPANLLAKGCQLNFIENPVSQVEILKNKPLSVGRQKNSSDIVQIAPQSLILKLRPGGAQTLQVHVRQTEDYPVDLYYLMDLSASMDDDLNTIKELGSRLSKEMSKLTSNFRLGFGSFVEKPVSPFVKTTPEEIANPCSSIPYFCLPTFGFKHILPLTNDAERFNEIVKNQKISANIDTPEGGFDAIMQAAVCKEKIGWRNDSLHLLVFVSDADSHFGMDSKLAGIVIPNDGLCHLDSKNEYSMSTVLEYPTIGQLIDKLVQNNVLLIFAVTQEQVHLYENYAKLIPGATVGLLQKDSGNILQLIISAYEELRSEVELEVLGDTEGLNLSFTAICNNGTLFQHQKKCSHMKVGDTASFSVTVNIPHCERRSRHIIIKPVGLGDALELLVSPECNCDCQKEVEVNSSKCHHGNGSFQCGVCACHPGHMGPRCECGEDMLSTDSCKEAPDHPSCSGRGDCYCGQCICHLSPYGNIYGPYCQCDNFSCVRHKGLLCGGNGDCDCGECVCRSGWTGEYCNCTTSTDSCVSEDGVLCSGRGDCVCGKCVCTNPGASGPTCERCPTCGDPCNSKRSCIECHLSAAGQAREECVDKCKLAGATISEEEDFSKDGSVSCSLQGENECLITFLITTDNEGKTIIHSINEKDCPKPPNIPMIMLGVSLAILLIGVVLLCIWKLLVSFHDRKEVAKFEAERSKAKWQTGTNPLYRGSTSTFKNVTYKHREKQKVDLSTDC

[5] = target: mouse αV on transfected HEK-293 cells (mouse) (UniProt P43406); test: FACS, transfected HEK-293 (parental: 0)
Sequence of mouse αV on transfected HEK-293 cells (mouse) (P43406 31-1044): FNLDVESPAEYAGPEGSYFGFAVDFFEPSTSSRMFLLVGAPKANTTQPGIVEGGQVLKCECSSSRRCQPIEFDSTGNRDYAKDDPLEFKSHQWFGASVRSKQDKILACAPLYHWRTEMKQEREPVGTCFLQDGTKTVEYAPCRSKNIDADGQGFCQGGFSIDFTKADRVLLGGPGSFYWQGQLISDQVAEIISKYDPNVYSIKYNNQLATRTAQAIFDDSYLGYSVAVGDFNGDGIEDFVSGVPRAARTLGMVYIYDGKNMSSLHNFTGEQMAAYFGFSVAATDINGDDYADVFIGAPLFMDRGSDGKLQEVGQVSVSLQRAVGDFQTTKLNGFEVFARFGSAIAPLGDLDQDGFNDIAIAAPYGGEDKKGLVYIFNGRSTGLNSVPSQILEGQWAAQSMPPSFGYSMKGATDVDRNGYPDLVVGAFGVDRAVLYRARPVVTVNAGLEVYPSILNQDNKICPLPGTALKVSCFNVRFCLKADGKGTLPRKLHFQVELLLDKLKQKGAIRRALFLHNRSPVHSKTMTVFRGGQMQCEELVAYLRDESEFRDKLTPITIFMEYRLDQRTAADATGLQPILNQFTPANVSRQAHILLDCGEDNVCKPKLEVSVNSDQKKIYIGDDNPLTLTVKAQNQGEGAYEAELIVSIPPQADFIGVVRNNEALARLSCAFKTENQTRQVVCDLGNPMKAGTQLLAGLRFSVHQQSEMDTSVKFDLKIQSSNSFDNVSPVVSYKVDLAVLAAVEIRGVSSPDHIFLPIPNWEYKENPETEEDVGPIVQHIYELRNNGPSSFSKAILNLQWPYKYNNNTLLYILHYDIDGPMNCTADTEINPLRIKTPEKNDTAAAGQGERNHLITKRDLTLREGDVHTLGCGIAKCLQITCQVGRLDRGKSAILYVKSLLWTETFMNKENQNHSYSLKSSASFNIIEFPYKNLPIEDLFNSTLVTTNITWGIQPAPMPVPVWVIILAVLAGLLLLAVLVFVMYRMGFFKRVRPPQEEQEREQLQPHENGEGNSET

[6] = target: cynomolgus β6 on transfected HEK-293 cells (cynomolgus); test: FACS, transfected HEK-293 (parental: 0)
[7] = target: cynomolgus αVβ6 on cells (cynomolgus); test: FACS, transfected HEK-293 (parental: 0)
[8] = target: cynomolgus αV on transfected HEK-293 cells (cynomolgus); test: FACS, transfected HEK-293 (parental: 0)
[9] = target: mouse αVβ6 on cells (mouse) (UniProt P43406); test: FACS, transfected HEK-293 (parental: 0)
Sequence of mouse αVβ6 on cells (mouse) (P43406 31-1044, chain 1 of 2): as the sequence (P43406 31-1044) above
Sequence of mouse αVβ6 on cells (mouse) (Q9Z0T9 22-787, chain 2 of 2, further chain): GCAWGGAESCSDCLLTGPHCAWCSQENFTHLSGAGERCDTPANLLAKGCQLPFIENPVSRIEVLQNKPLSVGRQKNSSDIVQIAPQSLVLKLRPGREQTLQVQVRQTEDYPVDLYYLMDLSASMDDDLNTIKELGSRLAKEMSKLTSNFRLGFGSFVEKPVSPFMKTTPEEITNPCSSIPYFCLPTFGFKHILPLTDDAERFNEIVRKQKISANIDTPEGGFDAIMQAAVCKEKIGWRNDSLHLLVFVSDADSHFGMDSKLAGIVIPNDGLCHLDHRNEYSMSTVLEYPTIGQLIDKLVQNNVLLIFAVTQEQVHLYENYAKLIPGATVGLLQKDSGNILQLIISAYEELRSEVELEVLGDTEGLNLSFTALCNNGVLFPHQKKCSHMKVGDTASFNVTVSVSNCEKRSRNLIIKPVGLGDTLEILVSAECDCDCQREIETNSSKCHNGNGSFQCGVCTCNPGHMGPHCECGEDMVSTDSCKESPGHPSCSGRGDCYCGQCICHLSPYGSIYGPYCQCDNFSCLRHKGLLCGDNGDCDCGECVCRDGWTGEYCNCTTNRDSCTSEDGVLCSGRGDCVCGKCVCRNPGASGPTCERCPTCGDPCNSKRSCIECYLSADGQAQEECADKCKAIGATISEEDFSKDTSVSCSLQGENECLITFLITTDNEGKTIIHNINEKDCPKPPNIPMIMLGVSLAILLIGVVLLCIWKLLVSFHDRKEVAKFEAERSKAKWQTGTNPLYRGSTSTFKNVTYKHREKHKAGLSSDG

[10] = target: mouse β6 on transfected HEK-293 cells (mouse) (UniProt Q9Z0T9); test: FACS, transfected HEK-293 (parental: 0)
Sequence of mouse β6 on transfected HEK-293 cells (mouse) (Q9Z0T9 22-787): as the sequence (Q9Z0T9 22-787, chain 2 of 2, further chain) above

[11] = target: cynomolgus αVβ6 on cells (cynomolgus); test: FACS, 1 ug/ml, HEK-293 transfected with cynomolgus αV and β6, day 1
[12] = target: cynomolgus αVβ6 on cells (cynomolgus); test: FACS, K562 cells expressing cynomolgus αVβ6 (parental K562: 15)
[13] = target: human αV on parental A375M cells (αVβ3 and αVβ5 integrins) (human) (UniProt P06756); test: FACS, 1 ug/ml, parental A375M cells, day 1
[14] = target: human αV on parental A375M cells (αVβ3 and αVβ5 integrins) (human) (UniProt P06756); test: FACS, 1 ug/ml, parental A375M cells, day 2
soluble αVβ6 (human) = soluble αVβ6 (human) (UniProt P06756); test: ELISA, 1 ug/mL on plate-coated soluble αVβ6
[15] = target: mouse αVβ6 on cells (mouse) (UniProt P43406); test: FACS, K562 cells expressing mouse αVβ6 (parental K562: 15)
[16] = target: cynomolgus αVβ6 on cells (cynomolgus); test: FACS, 1 ug/ml, HEK-293 transfected with cynomolgus αV and β6, day 2
[17] = target: human αVβ6 integrin on cells (human) (UniProt P06756); test: cell-based or functional assay

Sequence of human αV on parental A375M cells (αVβ3 and αVβ5 integrins) (human) (P06756 31-1048 A375M, form in doubt): as the sequence (P06756 31-1048, chain 1 of 2) above, with A345M counted along it

Percent Inhibition of J6.77 adhesion to CS-1 peptide, 5 ug/ml [1]: -9%
Substance: Human IgG2 (antibody)

Percent Inhibition of A375M adhesion to osteopontin peptide, 5 ug/ml [3]: 5%
Substance: Mouse IgG Control (antibody)

Continued, substance first:

Substance: Human IgG1 (antibody)
Percent Inhibition of J6.77 adhesion to CS-1 peptide, 5 ug/ml [1]: -6%

Substance: Human IgG Isotype Control (antibody)
% Inhibition of K562 adhesion to fibronectin [2]: -12% | Percent Inhibition of K562 adhesion to FN9-10, 5 ug/ml [2]: 11% | Percent Inhibition of A375M adhesion to osteopontin peptide, 5 ug/ml [3]: 3%

Substance: murine anti-αVβ6 antibody 2077z (Cat#MAB2077z, Chemicon)
FMAT Count [4]: 67 | FMAT FL1 [4]: 659 | FMAT FL1XCount [4]: 44200 | percent of cells shifted [5]: 1% | percent of cells shifted [6]: 5% | percent of cells shifted [7]: 20% | percent of cells shifted [8]: 0% | percent of cells shifted [9]: 45% | percent of cells shifted [10]: 11% | % Cells Shifted [11]: 42% | GeoMean [11]: 55.5 | Geometric Mean Shift (arbitrary units) [12]: 84 | % Cells Shifted [13]: 30% | GeoMean [13]: 2.03 | % Cells Shifted [14]: 5% | GeoMean [14]: 15.4 | ELISA OD (soluble αVβ6 (human)): 6 OD | Geometric Mean Shift (arbitrary units) [15]: 122 | % Cells Shifted [16]: 11% | GeoMean [16]: 28.1 | Estimated IC50, adhesion assay, n = 1 [17]: 0.226 µg/mL | Estimated IC50, adhesion assay, n = 2 [17]: 0.185 µg/mL | Estimated IC50, adhesion assay, n = 3 [17]: 0.286 µg/mL
